Assay results: the DeepSol protein solubility set

experiment: soluble on expression in E. coli; label from the status in PepcDB or PDB records

Sequence | soluble on expression in E. coli
MGSDKIHHHHHHMSRISEEIENLTVELVKVPSVNGTEGEGNIGNKILSYLKEIDYFKEHEEYAFRIPLKNDKLGRGNVFALIRGEKGQSNRTIILHGHMDTVAVDDYGSLKDYAFDPDILQKKLKEIELPEEVREDLDSGDWMFGRGASDMKSGDAVHLVVLKELSKRVKDISGNILFMSNPVEENEHNGIREALDTLEKLKEKYSLEYTLAINNDYICPMYKGDNTRYLYTGTVGKLLPAFYFVGKETHVGQCFEGINADVIASEVINEIDLNVDLCDEYNGEYTLPPSVLKFKDLKESYNVQTPFSSFAYFNYTVHSESPKQASEKLKKAAKRAFERVIKRNDDRYKKYCEMTNQKYEPLNFQAKVITYTQLYTLAKARFSGDLDKEIKSYEQRLVDNYVDIREISLRVVDKVFNIWGEKKPCIVMFFAPPYCPHNTLNVKNEKEKEIINKIKECAQQLKEKEGINEEFKVMQFFPSLSDSSYLKIDDDSEGIESLTSNFPGWDRVYGVPVQKIKDLNIPAINYGCYGKDAHKWTERVYKPYSFEVLPKLIMLTIEKFL | not soluble
MLSKKELAIITFLIHHKEQFVSSATLAEVIGMSDRTVRKYLKELISSLPEHGAHIISKQGRGYCLEIDHSMAFDIFWQESVTSKKRLADVTQVEESVDREDYVLHKFFFEDAVQDFEELCQELYISRTTLKHVLAGIKERIIPYQLELEITHQHIQIRGKEEDIRHFIMDYFFVTSFDNTLSTMVGNTFLEGINFAEIMIIVLDECRDAKLKLSDFVMNNLVLHIALMVQRIRSGCPLELFSIPIAIRQSDEYQVALRILYRVEEVMGIRFPKEEANYIALHLKVKHSVGKHWQDDNTDEKLQDHLKACIAKISQLTGMTLETDTNLFQGLLAHMMPLTIRLENHIQLTNPLTEEIKSQYPEIFTLTKQTFSDLLVCQKNDVSDDEWAYISLHLMAAIERYSNRHKLRVLVVCATGYGSAMMLKNRLEKEFEGRLRIVDVISYYEITEERLKTVDLIISSISLANLMFLTPVITVSVFLSNQDIETIRQFIGEQEGIKKEVSLPSQMSLAKAEQLLTGVFSPNRFLYLDEKISKEDLLLRMIACLDEAGTETFVEDFYHQMVLRENYSPVIYGEVLAFPHPANPMTYSEQVVVVICREPLEWDKAHQAVHFVFLLSPSKGHNHRLKYVSPGLASFVNQVELQQALLEEPNYSKFMTVFTPLIHD | not soluble
MSLENKHVTIYDIAERLNLATSTISRALKDHHTISDKTIKKVKKTAEEMGFVPNTLAAGLRGNKTRTIGVLIPTVTQPFLSSLISGIEITAQKSDYTVIIMQSHDSYEEEVNMAKSLYSNRVSGVICSLAMETRDTAHFHQFSNNNIPLVFVDRVPKDYNTFRVVIDNYTAGYKATKHLIEQGCIRIAHLTAGSELGNLYNERKRGYIEALKDHNIEVEEELIINLNSVTYEDGVKASNALFDLKPIPDGLFAPGDILAVSAVQTAKKRGTKVPEEFKVIGFNNDPISQIIDPNLSTITHPAEKMGKAAAEIIIKNLKSSKNDDAKEITFLNTEVLARESSSKEGHHHHHH | soluble
MSDSVSDAQAQSTPEGAQQKPILRVVKGNPDPTQVATLTALFASMADNAAQQSKQERERNLWGNVEERLQRPTTYNPTAFRNVSFF | not soluble
QDSTQNLIPAPPLISVPLQPGFWTERFQGRWFVVGLAGNAVQKERQSRFTMYSTIYELQEDNSYNVTSILVRGQGCRYWIRTFVPSSRPGQFTLGNIHSYPQIQSYDVQVADTDYDQFAMVFFQKTSENKQYFKVTLYGRTKGLSDELKERFVSFAKSLGLKDNNIVFSVPTDQCIDN | soluble
MNYKLTLHPGSNPVEEFTSIPHGVTSLDLSLNNLYSISTVELIQAFANTPASVTSLNLSGNSLGFKNSDELVQILAAIPANVTSLNLSGNFLSYKSSDELVKTLAAIPFTITVLDLGWNDFSSKSSSEFKQAFSNLPASITSLNLRGNDLGIKSSDELIQILAAIPANVNSLNLRGNNLASKNCAELAKFLASIPASVTSLDLSANLLGLKSYAELAYIFSSIPNHVVSLNLCLNCLHGPSLENLKLLKDSLKHLQTVYLDYDIVKNMSKEQCKALGAAFPNIQKIILVDKNGKEIHPSHSIPISNLIRELSGKADVPSLLNQCLIFAQKHQTNIEDLNIPDELRESIQTCKPLLEHHHHHH | soluble
MCEIFAKQPQDNYQFITRSIRIDGHATSVKLESSFWTILEEIASAQDMTVPKFISTVYQEALEYNGEVNNFASLLRCACLTYARQPENTLHQALAQLN | not soluble
